# Measurements published in paper PMC3641136.
# Target: calnexin (CNX), endogenous in COS7 cells (African green monkey (endogenous in COS7))
# Assay: co-IP; COS7 cells pulse-labeled 15 min with [35S]methionine/cysteine and chased; sequential immunoprecipitation with anti-CNX, then anti-GlyT2 antibodies (1% CHAPS); SDS-PAGE, fluorography, densitometry; also after treatment of cells with tunicamycin, castanospermine, deoxynojirimycin, deoxymannojirimycin, kifunensin, or at 45°C
# Settings: not given
row,half-life of the complex (pulse-chase) [min],Molecule
1,60,"neuronal glycine transporter 2 (GlyT2), wild type (natural protein, N-glycans on asparagines 345, 355, 360 and 366; the CNX-bound form is the 75 kDa under-glycosylated, EndoH-sensitive precursor) MDCSAPKEMNKPPTNILEATVPGHRDSPRAPRTSPEQDLPAAAPAAAVQPPRVPRSASTGAQTFQSADARACEAQRPGVGFCKLSSPQAQATSAALRDLSEGHSAQANPPSGAAGAGNALHCKIPALRGPEEDENVSVGKGTLEHNNTPAVGWVNMSQSTVVLGTDGIASVLPGSVATTTIPEDEQGDENKARGNWSSKLDFILSMVGYAVGLGNVWRFPYLAFQNGGGAFLIPYLMMLALAGLPIFFLEVSLGQFASQGPVSVWKAIPALQGCGIAMLIISVLIAIYYNVIICYTLFYLFASFVSVLPWGSCNNPWNTPECKDKTKLLLDSCVIGDHPKIQIKNSTFCMTAYPNLTMVNFTSQANKTFVSGSEEYFKYFVLKISAGIEYPGEIRWPLAFCLFLAWVIVYASLAKGIKTSGKVVYFTATFPYVVLVILLIRGVTLPGAGAGIWYFITPKWEKLTDATVWKDAATQIFFSLSAAWGGLITLSSYNKFHNNCYRDTLIVTCTNSATSIFAGFVIFSVIGFMANERKVNIENVADQGPGIAFVVYPEALTRLPLSPFWAIIFFLMLLTLGLDTMFATIETIVTSISDEFPKYLRTHKPVFTLGCCICFFIMGFPMITQGGIYMFQLVDTYAASYALVIIAIFELVGISYVYGLQRFCEDIEMMIGFQPNIFWKVCWAFVTPTILTFILCFSFYQWEPMTYGSYRYPNWSMVLGWLMLACSVIWIPIMFVIKMYLAPGRFIERLKLVCSPQPDWGPFLAQHRGERYKNMIDPLGTSSLGLKLPVKDLELGTQC"

# Target: calnexin (CNX), endogenous in COS7 cells
# Assay: sequential co-immunoprecipitation (CNX then GlyT2 antibodies), densitometry of fluorograms
# Settings: 15 min [35S]methionine/cysteine pulse, 30 min chase, n = 3, parent: est. 100, read off a plot
row,Molecule,percent of parent
1,"neuronal glycine transporter 2 (GlyT2), wild type (from UniProt P58295) N2",62 % of wtGlyT2
2,"neuronal glycine transporter 2 (GlyT2), wild type (from UniProt P58295) N123",35 % of wtGlyT2
3,"neuronal glycine transporter 2 (GlyT2), wild type (from UniProt P58295) N234",48 % of wtGlyT2
4,"neuronal glycine transporter 2 (GlyT2), wild type (from UniProt P58295) N345D; N355D; N360D; N366D",74 % of wtGlyT2

# More lines, now with the values ahead:
row,percent of parent,Molecule
1,69 % of wtGlyT2,"neuronal glycine transporter 2 (GlyT2), wild type (from UniProt P58295) N1"
2,72 % of wtGlyT2,"neuronal glycine transporter 2 (GlyT2), wild type (from UniProt P58295) N3"
3,85 % of wtGlyT2,"neuronal glycine transporter 2 (GlyT2), wild type (from UniProt P58295) N13"
4,62 % of wtGlyT2,"neuronal glycine transporter 2 (GlyT2), wild type (from UniProt P58295) N23"
5,51 % of wtGlyT2,"neuronal glycine transporter 2 (GlyT2), wild type (from UniProt P58295) N366D"
